Reference: patent publication US20250387465A1

Columns and labels:
[1] = target: ferritin-PreF fusion protein RSV-PreF-C-NP (respiratory syncytial virus (Pre-F part); species of the ferritin not stated); experiment: ELISA, fusion protein coated, F protein antibody 1:1500 as primary; protein kept 1 h at 70 C, pH 7.4; against untreated protein; mean of 10- to 10000-fold dilutions
[2] = target: ferritin-PreF fusion protein RSV-PreF-C-NP (respiratory syncytial virus (Pre-F part); species of the ferritin not stated); experiment: ELISA with F protein antibody after 1 h at pH 3.8, pH 10, 50 C or 70 C
[3] = target: ferritin-PreF fusion protein RSV-PreF-E-NP (respiratory syncytial virus (Pre-F part); species of the ferritin not stated); experiment: as above
[4] = target: ferritin-PreF fusion protein RSV-PreF-A-NP (respiratory syncytial virus (Pre-F part); species of the ferritin not stated); experiment: as above
[5] = target: ferritin-PreF fusion protein RSV-PreF-H-NP (respiratory syncytial virus (Pre-F part); species of the ferritin not stated); experiment: as above
[6] = target: ferritin-PreF fusion protein RSV-PreF-D-NP (respiratory syncytial virus (Pre-F part); species of the ferritin not stated); experiment: as above
[7] = target: ferritin-PreF fusion protein RSV-PreF-F-NP (respiratory syncytial virus (Pre-F part); species of the ferritin not stated); experiment: as above
[8] = target: ferritin-PreF fusion protein RSV-PreF-G-NP (respiratory syncytial virus (Pre-F part); species of the ferritin not stated); experiment: as above
[9] = target: ferritin-PreF fusion protein RSV-PreF-B-NP (respiratory syncytial virus (Pre-F part); species of the ferritin not stated); experiment: as above
[10] = target: ferritin-PreF fusion protein RSV-PreF-C-NP (respiratory syncytial virus (Pre-F part); species of the ferritin not stated); experiment: ELISA, fusion protein coated, F protein antibody 1:1500 as primary; protein kept 1 h at pH 7.4, 25 C (untreated reference); mean of 10- to 10000-fold dilutions
[11] = target: ferritin-PreF fusion protein RSV-PreF-C-NP (respiratory syncytial virus (Pre-F part); species of the ferritin not stated); experiment: ELISA, fusion protein coated, F protein antibody 1:1500 as primary; protein kept 1 h at 50 C, pH 7.4; against untreated protein; mean of 10- to 10000-fold dilutions
[12] = target: ferritin-PreF fusion protein RSV-PreF-C-NP (respiratory syncytial virus (Pre-F part); species of the ferritin not stated); experiment: ELISA, fusion protein coated, F protein antibody 1:1500 as primary; protein kept 1 h at pH 3.8, 25 C; against untreated protein; mean of 10- to 10000-fold dilutions
[13] = target: ferritin-PreF fusion protein RSV-PreF-C-NP (respiratory syncytial virus (Pre-F part); species of the ferritin not stated); experiment: ELISA, fusion protein coated, F protein antibody 1:1500 as primary; protein kept 1 h at pH 10, 25 C; against untreated protein; mean of 10- to 10000-fold dilutions

F protein antibody (PujianBiotech (Wuhan), Cat #62814)
Percentage of ELISA Signal Intensity Retained After Physical Stress Challenges [1]: 77.1% | antigen-binding activity retained against the original untreated protein [2]: > 75% | antigen-binding activity retained against the original untreated protein [3]: > 75% | antigen-binding activity retained against the original untreated protein [4]: > 75% | antigen-binding activity retained against the original untreated protein [5]: > 75% | antigen-binding activity retained against the original untreated protein [6]: > 75% | antigen-binding activity retained against the original untreated protein [7]: > 75% | antigen-binding activity retained against the original untreated protein [8]: > 75% | antigen-binding activity retained against the original untreated protein [9]: > 75% | Percentage of ELISA Signal Intensity Retained After Physical Stress Challenges [10]: 100% | Percentage of ELISA Signal Intensity Retained After Physical Stress Challenges [11]: 91.2% | Percentage of ELISA Signal Intensity Retained After Physical Stress Challenges [12]: 77.3% | Percentage of ELISA Signal Intensity Retained After Physical Stress Challenges [13]: 83.6%
